Several values for one entry are separate records, joined by “and”; a condition that tells them apart may be missing. Equal entries are not always repeated.

The values below come from patent US10865390B2, “Alcohol dehydrogenase mutant and application thereof in synthesis of diaryl chiral alcohols” (Jiangnan University, priority 2018, dated 2020).

Common to all, as to format: biochemical
In series [1] the test system is O=C(c1ccc(Cl)cc1)c1ccccn1. Description: Kinetic analysis of KpADH mutant M2 with CPMK. Conditions: other: M2, NADPH, pH 7.0, 30° C. As to the method: In an embodiment of the present disclosure, the mutant includes the substitution of valine for glutamic acid at position 214 of the alcohol dehydrogenase with the amino acid sequence shown in SEQ ID No. 2, which is named M2.
Adopting a total reaction system of 200 μL including: 1.0 mM NADPH, 1.0 mM substrate CPMK and sodium phosphate buffer (PBS, 100 mM, pH 7.0), fully and evenly mixing, maintaining at 30° C. for 2 min, adding an appropriate amount of enzyme solution, and detecting the change in light absorption at 340 nm.
The enzyme activity was calculated by the following formula: Enzyme activity (U)=EW×V×10^3/(6220×1);
in the formula, EW is the change in absorbance at 340 nm in 1 min; V is the volume of a reaction solution in mL; 6220 is the molar extinction coefficient of NADPH in L/(mol·cm); and 1 is the optical path distance in cm. One activity unit (U) corresponds to the amount of enzyme required to catalyze the oxidation of 1 μmol NADPH per minute under the above conditions.
A column used for purification was a nickel affinity column HisTrap FF crude, and purification was achieved through affinity chromatography using a histidine tag on recombinant protein. The nickel column was equilibrated with a solution A first, a crude enzyme solution was loaded, a penetrating peak was further eluted off using the solution A, and after equilibrium, a solution B (20 mM sodium phosphate, 500 mM NaCl, and 1000 mM imidazole, pH 7.4) was used for gradient elution to elute off the recombinant protein bound to the nickel column, so as to obtain the recombinant alcohol dehydrogenase mutant. The purified protein was subjected to activity measurement (CPMK as substrate, and NADPH as coenzyme) and SDS-PAGE analysis. […] The purified alcohol dehydrogenase protein was then replaced into a Tris-HCl (100 mM, pH 7.0) buffer using a Hi Trap Desalting column (GE Healthcare).
(§1) The activity of KpADH at different substrate concentrations and coenzyme concentrations was determined, and a double reciprocal curve was made based on the reciprocal of activity and substrate concentration to calculate kinetic parameters.

Series [2] in a line: Substrate specificity: reduction of prochiral carbonyl compound (Table 2). The source says:
The reduction on prochiral carbonyl compounds by the alcohol dehydrogenase mutants obtained in Example 2 was studied, and the studied prochiral carbonyl compounds include (4-chlorophenyl)-(pyridin-2-yl)-methanone (CPMK), phenyl-(pyridin-2-yl)-methanone, (4-chlorophenyl)-(phenyl)-methanone, (4-bromophenyl)-(phenyl)-methanone, (4-fluorophenyl)-(pyridin-2-yl)-methanone, (4-methoxyphenyl)-(phenyl)-methanone, acetophenone, 4-chloroacetophenone and 2-(4-chlorophenyl)acetyl chloride.

The nature of series [3]: 20 mL biocatalytic system: asymmetric reduction of CPMK. Conditions: for ee value of final reduction product: 20 mL biocatalytic system, enzyme 10 g/L, 30° C., pH 7.5; for time required to achieve a conversion rate close to 99.9%: CPMK concentration 200 mM. How it is done:
(§2) In an embodiment of the present disclosure, the (R)- and (S)-CPMA is chromatographed by taking 100 μL reaction solution, adding 500 μL ethyl acetate, shaking for 1-2 min, centrifuging at 12,000 rpm for 2-5 min, placing a supernatant into a centrifuge tube, and after an organic phase is naturally volatilized completely, adding 500 μL chromatographic pure ethanol for chiral liquid chromatography of a conversion rate and an ee value. The specific chromatographic conditions are as follows: Daicel Chiralcel OB-H (5 μm, 250 mm×4.6 mm) liquid chromatography column, mobile phases are n-hexane: ethanol: ethanolamine (90:10:0.01, v/v/v), the flow rate is 1 mL/min, the column temperature is 30° C., the UV detection wavelength is 254 nm, the injection volume is 10 μL, and the retention time for (R)-CPMA and that for (S)-CPMA are 11.14 min and 12.34 min respectively.
A 20 mL biocatalytic system was established: 100 mM potassium phosphate buffer (pH 7.0), and the alcohol dehydrogenase mutants M6 and M7 obtained in Example 2 as well as wild KpADH 10 g/L, CPMK 100 mM, 200 mM and 500 mM were added (substrate added in batches). […]

The nature of series [4]: Stereoselectivity analysis of CPMK reduction (chiral liquid chromatography, Table 1). Conditions: product CPMA from CPMK. How it is done: as §2
Method for determining optical purity ee:
As: molar concentration of (S)-CPMA obtained by liquid chromatography; and AR: molar concentration of (R)-CPMA obtained by liquid chromatography.
as §1

[5] abbreviates: CPMK 100 mM, reaction time 12 h.
[6] abbreviates: CPMK 100 mM, reaction time 24 h.
[7] abbreviates: CPMK 200 mM, reaction time 12 h.
[8] abbreviates: CPMK 200 mM, reaction time 24 h.
The mark [9] stands for this setting: CPMK 500 mM, reaction time 12 h.
Setting [10] is: CPMK 500 mM, reaction time 24 h.

Take “alcohol dehydrogenase KpADH mutant M2 (E214V of SEQ ID No. 2) (Vanderwaltozyma polyspora DSM 70294; E214V)”: in series [1], the Km (in general, the substrate concentration at which the rate is half of its maximum) is 574 µM; the Vmax – broadly, the top rate of the reaction or transport when substrate is in excess – amounted to 17.5 µmol/min/mg; the kcat – broadly, the maximal rate divided by the concentration of active sites – was found to be 11.7 s⁻¹; the kcat/Km (commonly the second-order rate constant that governs catalysis at low substrate concentration) stood at 14200 M⁻¹ s⁻¹.

B1: M6: alcohol dehydrogenase mutant E214G, S237C, Q136N, S196G, F161V of SEQ ID No. 2 (protein)
chain: MSVLISGASGYIAKHIVRVLLEQNYKVIGTVRSQDKADKLLKQYNNPNLSYEIVPEIANLDAFDDIFKKHGKEIKYVIHAASPVNFGAKDLEKDLVIPAINGTKNMFEAIKKYAPDTVERVVMTASYASIMTPHRNNDPTLTLDEETWNPVTEENAYENVVTAYCASKTFAEKEAWKFVKENSDAVKFKLTTIHPGFVFGPQNFDEDVTKKLNGTCEIINGLLHAPFDTKVEKTHFCQFIDVRDVAKTHVLGFQKDELINQRLLLCNGAFSQQDIVNVFNEDFPELKGQFPPEDKDTDLNKGVTGCKIDNEKTKKLLAFEFTPFHKTIHDTVYQILHKEGRV
modifications: Protein translated from synthetic DNA
On to B1, for which the “ee value of product” value in series [2] (substrate drawing 2) is recorded as 6.81%; in series [2] (substrate drawing 3) it was 91.7%; in series [2] (substrate drawing 5) it was 64.2%; in series [2] (substrate drawing 7), 95.3%; in series [2] (substrate drawing 8) it was 82.1%. Besides, in series [3], the “ee value of final reduction product” value is reported as 99.5%. Further, the Conversion rate in series [3] (CPMK 100 mM, reaction time 1 h) came to 24.6%; in series [3] (CPMK 100 mM, reaction time 2 h), 54.6%; in series [3] (CPMK 100 mM, reaction time 3 h) it was 69.4%; in series [3] (CPMK 100 mM, reaction time 4 h) it was 80.2%; in series [3] (CPMK 100 mM, reaction time 6 h), 95.2%; in series [3] (CPMK 100 mM, reaction time 8 h) it was 97.2%. Also, the Conversion rate in series [3] (setting [5]) worked out at 98.2%; in series [3] (setting [6]), 99.6%; in series [3] (CPMK 200 mM, reaction time 1 h), 19.1%; in series [3] (CPMK 200 mM, reaction time 2 h), 36.4%; in series [3] (CPMK 200 mM, reaction time 3 h) it was 52.8%; in series [3] (CPMK 200 mM, reaction time 4 h), 70.6%. In addition, the Conversion rate turned out to be 89.7% in series [3] (CPMK 200 mM, reaction time 6 h); 92.2% in series [3] (CPMK 200 mM, reaction time 8 h); 95.4% in series [3] (setting [7]); 99.2% in series [3] (setting [8]); 12.8% in series [3] (CPMK 500 mM, reaction time 1 h); 22.1% in series [3] (CPMK 500 mM, reaction time 2 h). Moreover, the Conversion rate in series [3] (CPMK 500 mM, reaction time 3 h) is 30.6%; in series [3] (CPMK 500 mM, reaction time 4 h) it was 65.3%; in series [3] (CPMK 500 mM, reaction time 6 h), 77.9%; in series [3] (CPMK 500 mM, reaction time 8 h), 87.6%; in series [3] (setting [9]) it was 90.2%; in series [3] (setting [10]) it was 99.5%. Also, the “time required to achieve a conversion rate close to 99.9%” value in series [3] is given as 24 h. Further, in series [4], the ee was 97.8% and 99.8%.

B2: KpADH: wild type alcohol dehydrogenase KpADH, amino acid sequence shown in SEQ ID No. 2 (protein)
chain: MSVLISGASGYIAKHIVRVLLEQNYKVIGTVRSQDKADKLLKQYNNPNLSYEIVPEIANLDAFDDIFKKHGKEIKYVIHAASPVNFGAKDLEKDLVIPAINGTKNMFEAIKKYAPDTVERVVMTASYASIMTPHRQNDPTLTLDEETWNPVTEENAYENVFTAYCASKTFAEKEAWKFVKENSDAVKFKLTTIHPSFVFGPQNFDEDVTKKLNETCEIINGLLHAPFDTKVEKTHFSQFIDVRDVAKTHVLGFQKDELINQRLLLCNGAFSQQDIVNVFNEDFPELKGQFPPEDKDTDLNKGVTGCKIDNEKTKKLLAFEFTPFHKTIHDTVYQILHKEGRV
modifications: Protein translated from synthetic DNA
Consider B2, for which the “ee value of product” value is given as 81.9% in series [2] (substrate drawing 1 (CPMK)); 26.3% in series [2] (substrate drawing 2); 71.4% in series [2] (substrate drawing 3); 69.2% in series [2] (substrate drawing 4); 25.3% in series [2] (substrate drawing 5); 14.9% in series [2] (substrate drawing 6). For the same molecule, the “ee value of product” value in series [2] (substrate drawing 7) amounted to 59.2%; in series [2] (substrate drawing 8) it was 67.1%; in series [2] (substrate drawing 9), 77.8%. For the same molecule, in series [3], the “ee value of final reduction product” value is 82%. Further, the Conversion rate in series [3] (CPMK 100 mM, reaction time 1 h) came to 47.76%; in series [3] (CPMK 100 mM, reaction time 2 h) it was 77.9%; in series [3] (CPMK 100 mM, reaction time 3 h), 87.1%; in series [3] (CPMK 100 mM, reaction time 4 h) it was 96.5%; in series [3] (CPMK 100 mM, reaction time 6 h), 98.7%; in series [3] (CPMK 100 mM, reaction time 8 h), 99.6%. Further, the Conversion rate in series [3] (setting [5]) is over 99.9%; in series [3] (setting [6]), over 99.9%; in series [3] (CPMK 200 mM, reaction time 1 h), 25.6%; in series [3] (CPMK 200 mM, reaction time 2 h), 36.9%; in series [3] (CPMK 200 mM, reaction time 3 h), 50.5%; in series [3] (CPMK 200 mM, reaction time 4 h), 62.8%. Moreover, the Conversion rate was found to be 85.3% in series [3] (CPMK 200 mM, reaction time 6 h); 97.4% in series [3] (CPMK 200 mM, reaction time 8 h); 99.4% in series [3] (setting [7]); 99.7% in series [3] (setting [8]); 11.7% in series [3] (CPMK 500 mM, reaction time 1 h); 20.1% in series [3] (CPMK 500 mM, reaction time 2 h). Moreover, the Conversion rate in series [3] (CPMK 500 mM, reaction time 3 h) is reported as 44.8%; in series [3] (CPMK 500 mM, reaction time 4 h), 59.6%; in series [3] (CPMK 500 mM, reaction time 6 h), 80.2%; in series [3] (CPMK 500 mM, reaction time 8 h) it was 93.2%; in series [3] (setting [9]), 95.6%; in series [3] (setting [10]) it was 99.2%. Also, the “time required to achieve a conversion rate close to 99.9%” value in series [3] is given as 12 h. For the same molecule, the ee in series [4] is 82% and 82.5%.

B3: M5: alcohol dehydrogenase mutant E214G, S237C, Q136N, S196G of SEQ ID No. 2 (protein)
chain: MSVLISGASGYIAKHIVRVLLEQNYKVIGTVRSQDKADKLLKQYNNPNLSYEIVPEIANLDAFDDIFKKHGKEIKYVIHAASPVNFGAKDLEKDLVIPAINGTKNMFEAIKKYAPDTVERVVMTASYASIMTPHRNNDPTLTLDEETWNPVTEENAYENVFTAYCASKTFAEKEAWKFVKENSDAVKFKLTTIHPGFVFGPQNFDEDVTKKLNGTCEIINGLLHAPFDTKVEKTHFCQFIDVRDVAKTHVLGFQKDELINQRLLLCNGAFSQQDIVNVFNEDFPELKGQFPPEDKDTDLNKGVTGCKIDNEKTKKLLAFEFTPFHKTIHDTVYQILHKEGRV
modifications: Protein translated from synthetic DNA
As to B3, the “ee value of product” value in series [2] (substrate drawing 1 (CPMK)) is listed as 87.7%; in series [2] (substrate drawing 2), 15.5%; in series [2] (substrate drawing 3), 62.0%; in series [2] (substrate drawing 4) it was 70.9%; in series [2] (substrate drawing 5), 59.5%; in series [2] (substrate drawing 6) it was 81.7%. Further, the “ee value of product” value is 95.6% in series [2] (substrate drawing 7), 49.1% in series [2] (substrate drawing 8) and 99.9% in series [2] (substrate drawing 9). The same molecule gave an ee in series [4] of 93.5%.
